Measurements taken from publication PMC8484483 (Scientific Reports, 2021).

Columns and labels:
Details in all cases: both partners purified
[1] = target: T1, recombinant TNFR2 extracellular domain fused with rabbit IgG1 Fc (Homo sapiens, UniProt P20333); experiment: SPR; Biacore T200; antibodies (1 ug/mL, ca. 400 RU) captured on a CM5 chip with anti-human IgG Fc; TNFR2-rFc and CD30-rFc (10 nM) run one after the other as 1st and 2nd analytes, in both orders; PBS, 0.05% Tween 20, pH 7.4, 25 °C
T1 construct: TNFR2, human, extracellular domain; also called TNFR2-rFc; source: Expi293F, transfected; purified on Protein A (as the chimeric antibodies)
T1 sequence (P20333 23-257): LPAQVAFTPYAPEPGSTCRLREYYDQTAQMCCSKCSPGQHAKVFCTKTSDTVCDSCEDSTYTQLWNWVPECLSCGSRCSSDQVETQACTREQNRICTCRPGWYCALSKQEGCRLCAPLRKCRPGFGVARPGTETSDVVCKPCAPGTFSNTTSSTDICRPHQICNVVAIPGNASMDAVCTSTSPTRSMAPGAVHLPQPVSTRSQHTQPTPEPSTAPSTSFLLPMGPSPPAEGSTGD

[2] = target: T2, recombinant CD30 extracellular domain fused with rabbit IgG1 Fc (Homo sapiens, UniProt P28908); experiment: flow cytometry on cells; crosslinking: antigen-expressing cells incubated with mAb or BsAb (10 ug/mL), washed twice, then CD30-rFc or TNFR2-rFc (50 ng/mL) 1 h on ice; rFc detected with R-PE anti-rabbit IgG; the antibody is held on the cells by its other arm
T2 construct: CD30, human, extracellular domain; also called CD30-rFc; source: Expi293F, transfected; purified on Protein A (as the chimeric antibodies)
T2 sequence (P28908 19-385): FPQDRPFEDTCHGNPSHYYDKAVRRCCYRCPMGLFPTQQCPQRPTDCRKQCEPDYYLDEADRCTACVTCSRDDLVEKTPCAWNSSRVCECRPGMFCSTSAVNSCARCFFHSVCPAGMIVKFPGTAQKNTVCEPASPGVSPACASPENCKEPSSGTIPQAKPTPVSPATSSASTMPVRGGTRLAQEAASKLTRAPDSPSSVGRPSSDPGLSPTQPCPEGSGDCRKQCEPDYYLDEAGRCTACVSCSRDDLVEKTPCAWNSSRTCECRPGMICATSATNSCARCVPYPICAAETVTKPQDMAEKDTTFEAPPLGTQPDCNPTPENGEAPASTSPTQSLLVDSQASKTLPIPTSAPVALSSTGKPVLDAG

[3] = target: T2, recombinant CD30 extracellular domain …; experiment: SPR; Biacore T200; antibodies (1 ug/mL, ca. 400 RU) captured on a CM5 chip with anti-human IgG Fc; TNFR2-rFc and CD30-rFc (10 nM) run one after the other as 1st and 2nd analytes, in both orders; PBS, 0.05% Tween 20, pH 7.4, 25 °C

B1: anti-CD30 T104, human chimeric monoclonal antibody (antibody, V domains shown)
VH: QIQLVQSGPELKKPGETVKISCKASGYTFTDYSMHWVKQAPGKGLKWMGWINTETGEPTYADDFKGRFAFSLETSASTAYLQINNLKNEDTATYFCTEGYVFDFWGQGTTLTVSS
VL: DILLTQSPAILSVSPGERVSFSCRASRSIGTSIHWYQQRTNGSPRLLINYASESISGIPSRFSGSGSGTDFTLSINSVESEDIADYYCQQSNSWPLTFGAGTKLELK
- binding result [1]: no binding (tested: 10 nM)
- binding result [2]: binds

B2: C-cleaved side product of the IMPTS reaction, monovalent Fab^CD30-Fc (SEC peak P2) (antibody, V domains shown)
VH: B1 VH
VL: B1 VL
- binding result [3]: binds
- binding result [1]: no binding (tested: 10 nM)

B3: anti-TNFR2 TR109, human chimeric monoclonal antibody (antibody, V domains shown)
VH: QVQLKESGPGLVAPSQSLSITCTVSGFSLTVYGVNWVRQPPGKGLEWLGMIWGDGSTAYNSALKSRLTITKDNSKTQVFLKMNSLQTDDTARYYCARDGRRYALDYWGQGTSVTVSS
VL: DIVLTQSPTSLAVSLGQRATISCRASESVDSYGDSFLHWYQQKPGQPPILLIYRASNLDSGIPARFSGSGSRTDFTLTINPVEADDVATYYCQQSNEDPYTFGGGTKLEIK
- binding result [3]: no binding (tested: 10 nM)
- binding result [1]: binds
